T1: ABP4 (Zea mays)
T1 chain: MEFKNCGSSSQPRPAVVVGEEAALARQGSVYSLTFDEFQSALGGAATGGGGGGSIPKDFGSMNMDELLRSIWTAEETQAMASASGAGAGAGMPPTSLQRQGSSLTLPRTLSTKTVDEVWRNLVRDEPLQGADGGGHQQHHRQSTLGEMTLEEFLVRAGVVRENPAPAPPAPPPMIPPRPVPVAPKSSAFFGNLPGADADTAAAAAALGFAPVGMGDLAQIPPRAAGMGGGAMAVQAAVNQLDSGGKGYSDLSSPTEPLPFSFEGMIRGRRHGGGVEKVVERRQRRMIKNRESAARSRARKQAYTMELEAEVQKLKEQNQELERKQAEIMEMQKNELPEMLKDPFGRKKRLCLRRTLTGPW

T2: ABP2 (Zea mays)
T2 chain: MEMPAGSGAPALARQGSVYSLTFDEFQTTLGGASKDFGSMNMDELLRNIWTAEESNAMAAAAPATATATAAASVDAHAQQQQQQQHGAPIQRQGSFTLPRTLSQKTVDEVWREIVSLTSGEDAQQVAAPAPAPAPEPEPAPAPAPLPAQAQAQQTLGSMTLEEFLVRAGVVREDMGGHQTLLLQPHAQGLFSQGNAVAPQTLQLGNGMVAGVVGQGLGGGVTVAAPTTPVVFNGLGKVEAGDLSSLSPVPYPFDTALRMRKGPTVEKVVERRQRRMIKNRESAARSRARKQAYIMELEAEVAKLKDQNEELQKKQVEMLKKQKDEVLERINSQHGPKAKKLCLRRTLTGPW

T3: ABP9 (Zea mays)
T3 chain: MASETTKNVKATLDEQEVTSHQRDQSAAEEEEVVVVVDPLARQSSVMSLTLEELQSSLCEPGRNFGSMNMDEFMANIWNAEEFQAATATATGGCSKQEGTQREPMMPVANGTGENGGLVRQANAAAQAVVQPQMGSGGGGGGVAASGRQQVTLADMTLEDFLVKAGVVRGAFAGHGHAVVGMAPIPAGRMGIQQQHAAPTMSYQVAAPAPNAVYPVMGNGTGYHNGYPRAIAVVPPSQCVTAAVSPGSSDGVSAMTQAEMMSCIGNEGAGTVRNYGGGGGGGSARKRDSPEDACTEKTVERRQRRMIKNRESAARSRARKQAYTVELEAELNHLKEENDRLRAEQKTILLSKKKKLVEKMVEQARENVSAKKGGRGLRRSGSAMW

B1: ABRE (dsDNA)
DNA 1: GAAGTCCACGTGGAGGTGG
DNA 2: TCCCACCTCCACGTGGACT
B2: mABRE (dsDNA)
DNA 1: GAAGTAACATGTTCGGTGG
DNA 2: TCCCACCGAACATGTTACT

Columns and labels:
Conditions in all cases: tags: GST (pGEX4T-1); label: 32P 5' end (EMSA); annealed oligos with 3-nt overhangs, ligated as 4mer
[1] = target: T1, ABP4; test: EMSA; 25 mM HEPES-KOH pH 7.6, 50 mM KCl, 10% glycerol, DTT, on ice
Protocol: (§1) Add 4 μl of 5×binding buffer (125 mM HEPES-KOH pH7.6, 50% glycerol, 250 mM KC1). Add 4 μg (9 μl) of each of the proteins ABP2, ABP4, ABP9 and GST. Add 1 μl of 1M DTT, 1 μl of probe of the above-labeled ABRE (or InABRE) and 4 μl of H₂O. Incubate on ice for 30 minutes. Add 3 μl of sample buffer (0.025% bromophenol blue in sterile H₂O) and perform polyacrylamide gel eletrophoresis analysis.
(§2) Set up the gel mixture of 9 ml of 30% acrylamide, 5 ml of 10×eletrophoresis buffer (142.7 g/L glycin, 3.92 g/L EDTA, 30.28 g/L Tris), 2.5 ml of 50% glycerol, 33 ml of deionized water, 400 μl of 10% APS, and 25 μl of TEMED. After completion of polymerization, perfom gel eletrophoresis with 1×eletrophoresis buffer, including pre-running for 10 minutes (300V), loading the samples and eletrophoresis for 1 hour (300V). Stick the gel with filter paper to peel off. Seal the peeled gel with Saran wrap and expose to X ray film for 1 hour. Wash the film, develop for 2 minutes and fix for 5 minutes. […] This means that the products of the genes ABP2, ABP4, and ABP9 also have the ABRE binding specificity in vitro.

[2] = target: T2, ABP2; test: as above
Protocol: as §1, §2

[3] = target: T3, ABP9; test: as above
Protocol: as §1, §2

[4] = target: T1, ABP4; test: EMSA; no retarded band
Protocol: as §1, §2

[5] = target: T2, ABP2; test: EMSA; no retarded band
Protocol: as §1, §2

[6] = target: T3, ABP9; test: EMSA; no retarded band
Protocol: as §1, §2

Binder | binding result [1] | binding result [2] | binding result [3] | binding result [4] | binding result [5] | binding result [6]
B1 | binds | binds | binds | – | – | –
B2 | – | – | – | no binding | no binding | no binding
